Biological target: the molecule itself
Test: cross-linking

B1: MRCKβ in extracts from HeLa cells (enzyme, UniProt Q9Y5S2 1-1711, looked up)
chain: MSAKVRLKKLEQLLLDGPWRNESALSVETLLDVLVCLYTECSHSALRRDKYVAEFLEWAKPFTQLVKEMQLHREDFEIIKVIGRGAFGEVAVVKMKNTERIYAMKILNKWEMLKRAETACFREERDVLVNGDCQWITALHYAFQDENHLYLVMDYYVGGDLLTLLSKFEDKLPEDMARFYIGEMVLAIDSIHQLHYVHRDIKPDNVLLDVNGHIRLADFGSCLKMNDDGTVQSSVAVGTPDYISPEILQAMEDGMGKYGPECDWWSLGVCMYEMLYGETPFYAESLVETYGKIMNHEERFQFPSHVTDVSEEAKDLIQRLICSRERRLGQNGIEDFKKHAFFEGLNWENIRNLEAPYIPDVSSPSDTSNFDVDDDVLRNTEILPPGSHTGFSGLHLPFIGFTFTTESCFSDRGSLKSIMQSNTLTKDEDVQRDLEHSLQMEAYERRIRRLEQEKLELSRKLQESTQTVQSLHGSSRALSNSNRDKEIKKLNEEIERLKNKIADSNRLERQLEDTVALRQEREDSTQRLRGLEKQHRVVRQEKEELHKQLVEASERLKSQAKELKDAHQQRKLALQEFSELNERMAELRAQKQKVSRQLRDKEEEMEVATQKVDAMRQEMRRAEKLRKELEAQLDDAVAEASKERKLREHSENFCKQMESELEALKVKQGGRGAGATLEHQQEISKIKSELEKKVLFYEEELVRREASHVLEVKNVKKEVHDSESHQLALQKEILMLKDKLEKSKRERHNEMEEAVGTIKDKYERERAMLFDENKKLTAENEKLCSFVDKLTAQNRQLEDELQDLAAKKESVAHWEAQIAEIIQWVSDEKDARGYLQALASKMTEELEALRSSSLGSRTLDPLWKVRRSQKLDMSARLELQSALEAEIRAKQLVQEELRKVKDANLTLESKLKDSEAKNRELLEEMEILKKKMEEKFRADTGLKLPDFQDSIFEYFNTAPLAHDLTFRTSSASEQETQAPKPEASPSMSVAASEQQEDMARPPQRPSAVPLPTTQALALAGPKPKAHQFSIKSFSSPTQCSHCTSLMVGLIRQGYACEVCSFACHVSCKDGAPQVCPIPPEQSKRPLGVDVQRGIGTAYKGHVKVPKPTGVKKGWQRAYAVVCDCKLFLYDLPEGKSTQPGVIASQVLDLRDDEFSVSSVLASDVIHATRRDIPCIFRVTASLLGAPSKTSSLLILTENENEKRKWVGILEGLQSILHKNRLRNQVVHVPLEAYDSSLPLIKAILTAAIVDADRIAVGLEEGLYVIEVTRDVIVRAADCKKVHQIELAPREKIVILLCGRNHHVHLYPWSSLDGAEGSFDIKLPETKGCQLMATATLKRNSGTCLFVAVKRLILCYEIQRTKPFHRKFNEIVAPGSVQCLAVLRDRLCVGYPSGFCLLSIQGDGQPLNLVNPNDPSLAFLSQQSFDALCAVELESEEYLLCFSHMGLYVDPQGRRARAQELMWPAAPVACSCSPTHVTVYSEYGVDVFDVRTMEWVQTIGLRRIRPLNSEGTLNLLNCEPPRLIYFKSKFSGAVLNVPDTSDNSKKQMLRTRSKRRFVFKVPEEERLQQRREMLRDPELRSKMISNPTNFNHVAHMGPGDGMQVLMDLPLSAVPPSQEERPGPAPTNLARQPPSRNKPYISWPSSGGSEPSVTVPLRSMSDPDQDFDKEPDSDSTKHSTPSNSSNPSGPPSPNSPHRSQLPLEGLEQPACDT
- stoichiometry N: 2

From article PMC8191314 (The Journal of Biological Chemistry, 2021)
